{"source": "patent US20070020687A1", "about": "(CYTOSKELETON, published 2007)", "binders": {"B1": {"name": "WASP effector-GBD peptide, histidine tagged, with engineered carboxy terminal cysteine (other, human)", "chain": "DIQNPDITSSRYRGLPAPGPSPADKKRSGKKKISKADIGAPSGFKHVSHVGWDPQNGFDVNNLDPDLRSLFSRAGISEAQLTDAETSKLIYDFIEDQGGLEAVRQEMRRQEPLPPPPPPSRC", "notes": "range 201-321; Linked covalently to maleimide plates; also called WASP-GBD; WASP-His; not shown: N-terminal histidine tag of vector pRSET-A"}, "B2": {"name": "constitutively active recombinant Cdc42, glutamine 61 to leucine, histidine tagged (enzyme)", "chain": "not shown", "notes": "Bought protein; also called Cdc42 (61L); constitutively active Cdc42; not shown: histidine tag"}}, "key": {"[1]": {"molecular_target": "T1, constitutively active recombinant Rac1, glutamine 61 to leucine, histidine tagged (Homo sapiens (Human), UniProt P63000 1-192)", "assay": "Rac1 G-LISA on POSH plate with 2 minute Antigen Presenting Buffer (1% TCA), absorbance 490 nm", "method": "The reactions were incubated for 30 minutes at 4° C. on a microtiter titer plate shaker after which wells were washed once with 200 μl of PBST (PBS pH 7.2, 0.05% Tween-20) and immediately treated with 200 μl of Antigen Presenting Buffer (1% trichloroacetic acid (TCA)) for 2-5 minutes at room temperature. Wells were then washed three times with 200 μl each of PBST and primary Rac1 antibody was added at 1 μg/ml and incubated at room temperature for 45 minutes. Wells were washed three times with 200 μl each of PBST and incubated with anti-mouse secondary antibody for 45 minutes at room temperature. After three washes each of 200 μl PBST, the activated Rho proteins were detected using absorbance detection. Absorbance was measured at OD₄₉₀ in a spectrophotometer (SpectraMax 250, Molecular Devices) after addition of 50 μl of OPD substrate (Sigma Catalog # P9187) for 15 minutes at 37° C. followed by addition of 50 μl of stop buffer (1M sulfuric acid).\nReferring to FIG. 5B, lysis buffer only (Blank) or 5 ng of Rac1 (61L) were subjected to Rac1 G-LISA assay as described in the materials and methods except that the assays were performed either with or without Antigen Presenting Buffer treatment (1% TCA or No APB respectively) Rac1 signal was detected by absorbance at 490 nm as described in the materials and methods."}, "[2]": {"molecular_target": "T1, constitutively active recombinant Rac1, …", "assay": "Rac1 G-LISA, POSH-GBD on maleimide plate, detection with anti-Rac1 GL06, absorbance 490 nm", "protocol": "(§1) Active Rho protein (typically 7-15 μg total cell lysate or 1-5 ng of constitutively active recombinant protein) were either added directly to the effector bound G-LISA plate (Rac1 and Cdc42 G-LISAs) or diluted with an equal volume of Binding Buffer (20% PEG 8000, Sigma, St. Louis, Mo.) prior to adding to effector bound plates (RhoA G-LISA). The reactions were incubated for 30 minutes at 4° .C on a microtiter titer plate shaker after which wells were washed once with 200 μl of PBST (PBS pH 7.2, 0.05% Tween-20) and immediately treated with 200 μl of Antigen Presenting Buffer (1% trichloroacetic acid (TCA)) for 2-5 minutes at room temperature. […] For RhoA and Rac1 reactions goat anti-mouse secondary at 2 μg/ml is used, for RhoA,B,C reactions donkey anti-chicken secondary at 0.5 μg/ml is used, for Cdc42 reactions goat anti-sheep secondary antibody is used at 0.5 μg/ml. After three washes each of 200 μl PBST the activated Rho proteins are detected using absorbance or luminescence detection as described below."}, "[3]": {"molecular_target": "T2, endogenous Rac1 of human platelet extract loaded with GTPγS (human, UniProt P63000 1-189)", "assay": "Rac1 G-LISA on POSH-GBD maleimide plate, GDP or GTPγS loaded platelet extract, absorbance 490 nm", "protocol": "as §1"}, "[4]": {"molecular_target": "active Rac1, sample not stated (Homo sapiens (Human), UniProt P63000 1-189)", "assay": "G-LISA with and without TCA Antigen Presenting Buffer"}, "[5]": {"molecular_target": "B2", "assay": "Cdc42 G-LISA, WASP-GBD on maleimide plate, detection with anti-Cdc42 ACD02, absorbance 490 nm", "protocol": "as §1\n(§2) Referring to FIG. 2C, lysis buffer only (Blank), 5 ng of Cdc42 (61L) or Rac1 (61L) were subjected to a Cdc42 G-LISA assay as detailed in materials and methods (Example 2), and Cdc42 signal was detected by absorbance at 490 nm as described in materials and methods (Example 2)."}, "[6]": {"molecular_target": "T1, constitutively active recombinant Rac1, …", "assay": "competition in Rac1: POSH G-LISA, 5 ng Rac1 (61L), POSH-GBD maleimide plate, PAK-GBD-GST at 0 to 10 µM"}, "[7]": {"molecular_target": "T2, endogenous Rac1 of human platelet …", "assay": "Rac1 G-LISA, PAK-GBD-GST on glutathione plate, loaded platelet extracts, absorbance 490 nm", "protocol": "For RhoA and Rac1 reactions goat anti-mouse secondary at 2 μg/ml is used, for RhoA,B,C reactions donkey anti-chicken secondary at 0.5 μg/ml is used, for Cdc42 reactions goat anti-sheep secondary antibody is used at 0.5 μg/ml. After three washes each of 200 μl PBST the activated Rho proteins are detected using absorbance or luminescence detection as described below.\n(§3) Plates were incubated at room temperature for 1 hour. Plates were washed twice in PBS and blocked by addition of 0.1% BSA in PBS pH 7.2 for 1 hour at room temperature."}, "[8]": {"molecular_target": "T1, constitutively active recombinant Rac1, …", "assay": "Rac1 G-LISA, PAK-GBD-GST on glutathione plate, absorbance 490 nm", "protocol": "as §1, §3"}, "[9]": {"molecular_target": "B1", "assay": "G-LISA on maleimide plates (FIG. 2)", "protocol": "as §1, §2"}, "[10]": {"molecular_target": "T1, constitutively active recombinant Rac1, …", "assay": "competition in Rac1: POSH G-LISA, 5 ng Rac1 (61L), POSH-GBD maleimide plate, reference PAK-GBD-GST"}, "[11]": {"molecular_target": "T1, constitutively active recombinant Rac1, …", "assay": "competition in Rac1: POSH G-LISA, 5 ng Rac1 (61L), POSH-GBD maleimide plate, ROCK-GST as negative control inhibitor"}, "[12]": {"molecular_target": "T3, constitutively active recombinant RhoA, glutamine 63 to leucine, histidine tagged (Homo sapiens (Human), UniProt P61586 1-193, limits assumed)", "T3 construct": "Bought protein; unable to hydrolyse GTP; also called RhoA (63L); R63; not shown: histidine tag", "T3 sequence (P61586 whole entry Q63L)": "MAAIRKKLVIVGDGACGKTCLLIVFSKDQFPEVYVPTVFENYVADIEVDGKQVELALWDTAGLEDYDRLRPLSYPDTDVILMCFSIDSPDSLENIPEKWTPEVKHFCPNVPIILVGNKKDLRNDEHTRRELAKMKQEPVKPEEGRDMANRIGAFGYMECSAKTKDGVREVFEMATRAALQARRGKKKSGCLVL", "assay": "RhoA G-LISA, ROCK1-GBD on maleimide plate, detection with anti-RhoA clone 384, luminometry", "protocol": "as §1, with “The” for “Active Rho protein (typically 7-15 μg total cell lysate or 1-5 ng of constitutively active recombinant protein) were either added directly to the effector bound G-LISA plate (Rac1 and Cdc42 G-LISAs) or diluted with an equal volume of Binding Buffer (20% PEG 8000, Sigma, St. Louis, Mo.) prior to adding to effector bound plates (RhoA G-LISA). The”"}, "[13]": {"molecular_target": "T4, endogenous RhoA of human platelet extract loaded with GTPγS (human, UniProt P61586 1-190)", "T4 construct": "also called active RhoA (GTPγS); GTPγS RhoA", "T4 sequence (P61586 1-190 limits assumed)": "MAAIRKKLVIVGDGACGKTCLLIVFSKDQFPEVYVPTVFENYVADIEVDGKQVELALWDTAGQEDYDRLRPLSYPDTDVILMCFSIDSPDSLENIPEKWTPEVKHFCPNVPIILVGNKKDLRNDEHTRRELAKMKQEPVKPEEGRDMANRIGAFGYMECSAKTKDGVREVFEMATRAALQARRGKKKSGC", "assay": "RhoA G-LISA on ROCK plate, loaded platelet extracts, treatment with 10% TCA for 2 minutes, detection with clone 384, luminescence", "method": "Platelet cell lysates loaded with GTPγS or GDP nucleotides (10 μg total cell lysate per assay) were diluted with an equal volume of Binding Buffer (20% PEG 8000, Sigma, St. Louis, Mo.) prior to adding to ROCK effector bound plates. The reactions were incubated for 30 minutes at 4° C. on a microtiter titer plate shaker after which wells were washed once with 200 μl of PBST (PBS pH 7.2, 0.05% Tween-20) and immediately treated with one of the following chemical/physical treatments: microwaving for 3 minutes in the presence of 200 μl PBS; microwaving for 3 minutes dry; microwaving for 3 minutes in the presence of 200 μl of 8M urea; 200 μl methanol for 2 minutes; 200 pl ethanol for 2 minutes; 200 μl of 0.5% SDS for 2 minutes, 200 μl of 10% trichloroacetic acid (TCA) for 2 minutes at room temperature. […] After three washes each of 200 μl PBST, the activated Rho proteins were detected using luminescence detection. Luminescence was measured in a SpectroFluor Plus (Techan Inc.) after addition of 50 μl of lumigen reagent (Lumigen Inc., Catalog # PSA-100).\nAfter extract incubation, the plate was treated with MW+PBS, MW/Dry, MW/8 M urea, methanol, ethanol, 0.5% SDS, 10% TCA or no treatment followed by antibody incubation and luminescence detection. […]"}, "[14]": {"molecular_target": "T4, endogenous RhoA of human platelet …", "assay": "RhoA G-LISA on ROCK-GBD maleimide plate, 15 µg GDP or GTPγS loaded platelet extract, Binding Buffer, luminometry", "protocol": "as §1"}, "[15]": {"molecular_target": "active RhoA, sample not stated (Homo sapiens (Human), UniProt P61586 1-190, limits assumed)", "sequence (P61586 1-190 limits assumed)": "as above", "assay": "G-LISA with and without TCA Antigen Presenting Buffer"}, "[16]": {"molecular_target": "T3, constitutively active recombinant RhoA, …", "assay": "G-LISA with rhotekin-Cys effector-GBD on plate, data not shown"}}, "data": [{"binder": "POSH effector-GBD peptide, histidine tagged (other, range 291-363; Linked to maleimide plates through the naturally occurring cysteine at position 351; also called POSH-GBD; POSH-His; not shown: N-terminal histidine tag of vector pRSET-A) KHSDTKKNTKKRHSFTSLTMANKSSQASQNRHSMEISPPVLISSSNPTAAARISELSGLSCSAPSQVHISTTG", "values": [{"measurement": "signal fold above background", "setting": "[1]", "value": 7, "unit": "fold"}, {"measurement": "signal fold above background", "setting": "[2]", "value": 9, "unit": "fold"}, {"measurement": "fold signal of active (GTPγS) Rac1 over inactive (GDP) Rac1", "setting": "[3]", "value": 30, "unit": "fold"}, {"measurement": "loss of signal in the absence of TCA", "setting": "[4]", "value": "> 80", "unit": "%"}]}, {"binder": "B1", "values": [{"measurement": "signal fold above background", "setting": "[5]", "value": 5, "unit": "fold"}]}, {"binder": "PAK-GBD-GST peptide (other, range 68-151; also called PAK1-GST; PAK-GST; not shown: Glutathione S transferase tag of vector pGEX-4T with thrombin site, N-terminal) KEKERPEISLPSDFEHTIHVGFDAVTGEFTGMPEQWARLLQTSNITKSEQKKNPQAVLDVLEFYNSKKTSNSQKYMSFTDKSAEC", "values": [{"measurement": "IC50", "setting": "[6]", "value": "~0.1", "unit": "µM"}, {"measurement": "loss of signal in the absence of TCA", "setting": "[4]", "value": "> 80", "unit": "%"}, {"measurement": "fold signal of GTPγS (active) over GDP (inactive) loaded platelet extract", "setting": "[7]", "value": 8, "unit": "fold"}, {"measurement": "signal fold above background (buffer only)", "setting": "[8]", "value": 8, "unit": "fold"}]}, {"binder": "B2", "values": [{"measurement": "binding result", "setting": "[9]", "value": "binds"}]}, {"binder": "ROCK-GST peptide (other, domain: GBD; a GST fusion of ROCK is described nowhere else; also called ROCK-GBD; RhoA effector ROCK-GBD; not shown: Glutathione S transferase tag) EAEQYFSTLYKTQVKELKEEIEEKNRENLKKIQELQNEKETLATQLDLAETKAESEQLARGLLEEQYFELTQESKKAASRNRQEITDKDHTVSRLEEANSMLTKDIEILRRENEELTEKMKKAEEEYKLEKEEEISNLKAAFEKNINTERTLKTQAVNKLAEIMNRKDFKIDRKKANT", "values": [{"measurement": "fold IC50 against PAK", "setting": "[10]", "value": "~80", "unit": "fold"}, {"measurement": "IC50", "setting": "[11]", "value": 8, "unit": "µM"}]}, {"binder": "ROCK1 effector-GBD peptide, histidine tagged, with engineered carboxy terminal cysteine (other, human, range 847-1024; Linked covalently to maleimide plates through the C-terminal cysteine; also called ROCK1-GBD; ROCK-GBD; not shown: N-terminal histidine tag of vector pRSET-A) EAEQYFSTLYKTQVKELKEEIEEKNRENLKKIQELQNEKETLATQLDLAETKAESEQLARGLLEEQYFELTQESKKAASRNRQEITDKDHTVSRLEEANSMLTKDIEILRRENEELTEKMKKAEEEYKLEKEEEISNLKAAFEKNINTERTLKTQAVNKLAEIMNRKDFKIDRKKANTC", "values": [{"measurement": "signal fold above background (buffer only)", "setting": "[12]", "value": 6, "unit": "fold"}, {"measurement": "fold signal of GTPγS RhoA over GDP RhoA", "setting": "[13]", "value": "~8", "unit": "fold"}, {"measurement": "fold signal of active (GTPγS) RhoA over inactive (GDP) RhoA", "setting": "[14]", "value": 7, "unit": "fold"}, {"measurement": "loss of signal in the absence of TCA", "setting": "[15]", "value": "> 80", "unit": "%"}]}, {"binder": "rhotekin-Cys effector-GBD as tested in the G-LISA (other, mouse, range 7-89; also called modified effector-GBD; Rhotekin-Cys-no tag) ILEDLNMLYIRQMALSLEDTELQRKLDHEIRMRDGAEKLLAALSQREQALEATKSLLVSNSRILSYMGELQRRKEAQVLEKTGC", "values": [{"measurement": "signal fold above background", "setting": "[16]", "value": 6, "unit": "fold"}]}]}
